# Changes are numbered by the printed parent chain. Read-outs that look alike come from different tables or passages of the source.
# B1: anti-LILRB4 rabbit monoclonal antibody #192 (antibody, V domains shown)
# VH: EQSLEESGGGLVTPGGTLTLTCTVSGFSLSNNAMSWVRQAPGKGLEWIGVILLAGPTYYASWAKGRFTISKTSTTVDLKITSPTTEDTATYFCAIAIGSRPFALWGQGTLVTISS
# VL: ELVLTQTPSSTSAAVGGTVTINCQSSQSVYSNWLSWFQQKPGQPPKPLIYLASTLASGVPSRFSGSGSGTQFTLTISDVQCDDAATYYCQGGYNGNIYTFGGGTEVVVK
# B2: anti-LILRB4 rabbit monoclonal antibody #208 (antibody, V domains shown)
# VH: B1 VH with L4V, A54S, P56T
# VL: B1 VL with L4M
# B3: anti-LILRB4 rabbit monoclonal antibody #161-2 (antibody, V domains shown)
# VH: QSVKESGGRLVTPGTPLTLTCTVSGIDLSVYLMSWVRHSPGKGLEYIGFINSAGITAYATWAKGRFIISKTSTTVDLKVTSPTTEDTATYFCARNWIRLDLWGQGTLVTISS
# VL: TQTPASVSAAVGGTVTISCQSSETIYKNYLSWFQQKPGQPPKLLIYESSKLASGVPSRFSGSGSGTQFTLTISDVQCDDAATYYCLGGYTDGRDTIFGGGTEVEIK
# B4: anti-LILRB4 rabbit monoclonal antibody #78 (antibody, V domains shown)
# VH: B3 VH with V3L, K4Q, H38Q
# VL: ELVLTQTPASVSAAVGGTVTISCQSSESIYKNYLSWFQQKPGQPPKLLIYETSKLASGVPSRFSGSGSGTQFTLTISDVQCDDAATYYCLGGYTNGRDTIFGGGTELEIK
# B5: anti-LILRB4 rabbit monoclonal antibody #161-1 (antibody, V domains shown)
# VH: B3 VH
# VL: B4 VL with V3D, S28T, T52S, N95D
# B6: anti-LILRB4 rabbit monoclonal antibody #120 (antibody, V domains shown)
# VH: QSLEESGGRLVTPGTPLTLTCTVSGIDLNKYAMTWVRQAPGKGLEYIGFINIVGIAGYATWAKGRFTISKTSTTVDLKVTSPTTEDTATYFCARNWIRLDLWGQGTLVTVSS
# VL: ELDLTQTPASVSAAVGGTVTISCQSSESLYKKNYLSWFQQKPGQPPKLLIFEASKLASGVPSRFSGSGSGTQFTLTISDVQCDDAASYYCLGDYTNGRDTTFGGGTEVVVK
# Experiments:
# Assay in all cases: ELISA
# [1] = target: T1, human LILRB4 (UniProt Q8NHJ6 22-259)
# [2] = target: T1, human LILRB4; remark: listed apart in the source
# [3] = target: T1, human LILRB4; remark: listed apart in the source
# T1 sequence (Q8NHJ6 22-259): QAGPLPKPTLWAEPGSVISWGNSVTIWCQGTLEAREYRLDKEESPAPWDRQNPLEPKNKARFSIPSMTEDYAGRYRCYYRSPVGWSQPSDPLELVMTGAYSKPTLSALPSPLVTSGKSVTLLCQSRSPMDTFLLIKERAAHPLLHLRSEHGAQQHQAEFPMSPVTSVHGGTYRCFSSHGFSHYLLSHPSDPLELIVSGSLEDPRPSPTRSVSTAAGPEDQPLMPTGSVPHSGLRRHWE
Binder,EC50 [1],EC50 [2],EC50 [3]
B1,0.021 µg/mL,,
B2,,0.0198 µg/mL,
B3,,0.0126 µg/mL,
B4,,,0.0121 µg/mL
B5,0.0104 µg/mL,,
B6,,,0.0119 µg/mL

# — patent US20180086829A1 (published 2018)
